Measured values published in the Human Domainome abundance scans (Beltran et al. 2025).
± gives the uncertainty stated by the source.

B1: Membrane-associated guanylate kinase, WW and PDZ domain-containing protein 2, residues 601 to 682; numbered along this chain, Q86UL8 (parent)
chain: AELMTLTIVKGAQGFGFTIADSPTGQRVKQILDIQGCPGLCEGDLIVEINQQNVQNLSHTEVVDILKDCPIGSETSLIIHRG

Variants of: B1
Experiment: abundance fitness (aPCA) (normalised: wild type 0, dead -1); higher = more abundant; growth selection in yeast, the domain comes from the species named
Settings: Homo sapiens

| Variant | abundance fitness |
| --- | --- |
| I65G | -0.295 ± 0.038 |
| I65A | -0.048 ± 0.037 |
| I65Y | -0.047 ± 0.063 |
| I65Q | -0.079 ± 0.047 |
| I65R | -0.064 ± 0.034 |
| I65L | -0.072 ± 0.037 |
| I65T | -0.038 ± 0.048 |
| I65V | 0.006 ± 0.037 |
| I65P | -1.32 ± 0.22 |
| I65N | -0.256 ± 0.087 |
| I65K | -0.069 ± 0.057 |
| I65E | -0.146 ± 0.052 |
| I65M | -0.051 ± 0.05 |
| I65S | -0.059 ± 0.04 |
| I65H | -0.242 ± 0.093 |
| I65C | -0.053 ± 0.063 |
| I65F | -0.088 ± 0.074 |
| I65D | -0.542 ± 0.13 |
| K67F | -0.062 ± 0.31 |
| K67Y | -0.226 ± 0.14 |
| K67Q | -0.145 ± 0.13 |
| K67G | 0.052 ± 0.093 |
| K67T | 0.093 ± 0.11 |
| K67R | 0.034 ± 0.089 |

| Variant | abundance fitness |
| --- | --- |
| K67H | -0.23 ± 0.21 |
| K67E | -0.034 ± 0.17 |
| K67I | -0.324 ± 0.13 |
| K67V | -0.112 ± 0.14 |
| K67M | -0.003 ± 0.1 |
| K67N | -0.022 ± 0.18 |
| K67L | -0.083 ± 0.097 |
| K67W | -0.224 ± 0.24 |
| K67S | 0.004 ± 0.083 |
| K67C | -0.117 ± 0.11 |
| K67A | -0.072 ± 0.083 |
| E74S | -0.16 ± 0.1 |
| E74T | -0.422 ± 0.38 |
| E74I | -0.214 ± 0.16 |
| E74H | 0.241 ± 0.47 |
| E74V | -0.122 ± 0.12 |
| E74R | 0.013 ± 0.069 |
| E74D | 0.137 ± 0.15 |
| E74G | -0.153 ± 0.1 |
| E74W | -0.069 ± 0.096 |
| E74M | 0.062 ± 0.15 |
| E74K | -0.23 ± 0.34 |
| E74C | -0.322 ± 0.17 |
| E74P | 0.149 ± 0.12 |

| Variant | abundance fitness |
| --- | --- |
| E74A | -0.185 ± 0.088 |
| E74Q | -0.074 ± 0.16 |
| E61C | -0.039 ± 0.11 |
| E61G | -0.036 ± 0.065 |
| E61F | -0.381 ± 0.39 |
| E61R | 0.002 ± 0.1 |
| E61S | -0.2 ± 0.12 |
| E61V | -0.132 ± 0.089 |
| E61A | -0.151 ± 0.094 |
| E61I | -0.409 ± 0.32 |
| E61K | -0.137 ± 0.17 |
| E61W | -0.374 ± 0.21 |
| E61L | -0.046 ± 0.071 |
| E61D | -0.005 ± 0.37 |
| E61H | -0.051 ± 0.15 |
| E61T | -0.289 ± 0.14 |
| E61M | 0.08 ± 0.28 |
| I71E | -0.033 ± 0.11 |
| I71P | -0.052 ± 0.11 |
| I71L | -0.099 ± 0.1 |
| I71A | -0.165 ± 0.1 |
| I71R | -0.082 ± 0.076 |
| I71K | -0.117 ± 0.24 |
| I71G | 0.038 ± 0.074 |

| Variant | abundance fitness |
| --- | --- |
| I71Q | -0.161 ± 0.096 |
| I71F | -0.004 ± 0.21 |
| I71V | 0.006 ± 0.089 |
| I71H | -0.18 ± 0.23 |
| I71M | -0.004 ± 0.099 |
| I71D | -0.101 ± 0.17 |
| I71C | -0.101 ± 0.23 |
| I71T | -0.038 ± 0.15 |
| V62L | -0.114 ± 0.087 |
| V62W | -1.03 ± 0.4 |
| V62R | -0.91 ± 0.14 |
| V62F | -0.345 ± 0.31 |
| V62C | 0.181 ± 0.29 |
| V62H | -0.598 ± 0.35 |
| V62M | -0.181 ± 0.12 |
| V62D | -0.985 ± 0.35 |
| V62A | -0.079 ± 0.089 |
| V62Q | -0.336 ± 0.13 |
| V62G | -1.07 ± 0.17 |
| V62E | -0.999 ± 0.49 |
| V62T | -0.03 ± 0.13 |
| V63C | -0.192 ± 0.15 |
| V63L | -0.278 ± 0.2 |
| V63G | -0.067 ± 0.074 |

| Variant | abundance fitness |
| --- | --- |
| V63Q | -0.087 ± 0.23 |
| V63M | 0.041 ± 0.11 |
| V63A | 0.001 ± 0.067 |
| V63K | -0.095 ± 0.21 |
| V63F | -0.432 ± 0.38 |
| V63H | -0.493 ± 0.21 |
| V63D | 0.145 ± 0.41 |
| V63S | -0.099 ± 0.13 |
| V63R | -0.072 ± 0.068 |
| V63W | -0.017 ± 0.11 |
| V63E | -0.028 ± 0.12 |
| L66F | 0.053 ± 0.18 |
| L66C | -0.398 ± 0.15 |
| L66G | -0.673 ± 0.28 |
| L66R | -1.11 ± 0.24 |
| L66Y | -0.736 ± 0.45 |
| L66S | -0.63 ± 0.2 |
| L66A | -0.571 ± 0.12 |
| L66T | -0.589 ± 0.47 |
| L66E | -0.522 ± 0.33 |
| L66V | -0.235 ± 0.13 |
| L66Q | -0.557 ± 0.31 |
| L66W | -0.521 ± 0.12 |
| S76L | -0.061 ± 0.077 |

| Variant | abundance fitness |
| --- | --- |
| S76M | -0.003 ± 0.11 |
| S76Q | 0 ± 0.1 |
| S76C | 0.016 ± 0.12 |
| S76P | -0.046 ± 0.072 |
| S76D | -0.124 ± 0.098 |
| S76V | -0.031 ± 0.063 |
| S76A | -0.018 ± 0.074 |
| S76N | -0.003 ± 0.2 |
| S76W | -0.123 ± 0.076 |
| S76Y | 0.09 ± 0.21 |
| S76R | -0.021 ± 0.054 |
| S76T | -0.053 ± 0.087 |
| S76E | -0.044 ± 0.14 |
| S76I | -0.118 ± 0.14 |
| S76H | -0.668 ± 0.29 |
| S73P | -0.048 ± 0.1 |
| S73W | -0.06 ± 0.091 |
| S73H | 0.024 ± 0.15 |
| S73R | -0.132 ± 0.089 |
| S73N | -0.359 ± 0.33 |
| S73Y | -0.178 ± 0.19 |
| S73Q | -0.098 ± 0.11 |
| S73G | 0.095 ± 0.081 |
| S73T | -0.095 ± 0.12 |

| Variant | abundance fitness |
| --- | --- |
| S73M | -0.004 ± 0.14 |
| S73V | -0.025 ± 0.067 |
| S73A | 0.021 ± 0.065 |
| S73K | -0.044 ± 0.092 |
| S73L | -0.102 ± 0.14 |
| S73I | -0.011 ± 0.18 |
| S73F | 0.029 ± 0.19 |
| I78F | -0.035 ± 0.27 |
| I78A | -0.179 ± 0.12 |
| I78P | -1.13 ± 0.49 |
| I78N | -0.011 ± 0.2 |
| I78H | -0.157 ± 0.2 |
| I78G | -0.075 ± 0.068 |
| I78T | -0.224 ± 0.15 |
| I78W | -0.129 ± 0.089 |
| I78E | -0.086 ± 0.17 |
| I78L | -0.053 ± 0.097 |
| I78S | 0.019 ± 0.098 |
| I78R | 0.033 ± 0.071 |
| I78Q | -0.23 ± 0.14 |
| I78K | -0.122 ± 0.1 |
| I78M | 0.144 ± 0.14 |
| T60A | 0.146 ± 0.081 |
